Source: US10064939B2, “Combination therapy using c-Met inhibitor and IGF-1R inhibitor for c-Met inhibitor resistant cancers” (Samsung Electronics Co., Ltd., priority 2014, dated 2018)

B1: scFv of huAbF46: scFv of structure VH-linker-VL from heavy and light chain variable regions of huAbF46 (protein)
scFv: EVQLVESGGGLVQPGGSLRLSCAASGFTFTDYYMSWVRQAPGKGLEWLGFIRNKANGYTTEYSASVKGRFTISRDNSKNTLYLQMNSLRAEDTAVYYCARDNWFAYWGQGTLVTVSSGLGGLGGGGSGGGGSGGSSGVGSDIQMTQSPSSLSASVGDRVTITCKSSQSLLASGNQNNYLAWHQQKPGKAPKMLIIWASTRVSGVPSRFSGSGSGTDFTLTISSLQPEDFATYYCQQSYSAPLTFGQGTKVEIKR
B2: L3-1Y/IgG2: anti-c-Met antibody: huAbF46-H4-A1 variable regions, human IgG2 hinge and constant region, human kappa light chain with His36Tyr (antibody)
heavy: EVQLVESGGGLVQPGGSLRLSCAASGFTFTDYYMSWVRQAPGKGLEWLGFIRNKANGYTTEYSASVKGRFTISRDNSKNTLYLQMNSLRAEDTAVYYCARDNWFAYWGQGTLVTVSSASTKGPSVFPLAPCSRSTSESTAALGCLVKDYFPEPVTVSWNSGALTSGVHTFPAVLQSSGLYSLSSVVTVPSSNFGTQTYTCNVDHKPSNTKVDKTVERKCCVECPPCPAPPVAGPSVFLFPPKPKDTLMISRTPEVTCVVVDVSHEDPEVQFNWYVDGVEVHNAKTKPREEQFNSTFRVVSVLTVVHQDWLNGKEYKCKVSNKGLPAPIEKTISKTKGQPREPQVYTLPPSREEMTKNQVSLTCLVKGFYPSDIAVEWESNGQPENNYKTTPPMLDSDGSFFLYSKLTVDKSRWQQGNVFSCSVMHEALHNHYTQKSLSLSPGK
light: DIQMTQSPSSLSASVGDRVTITCKSSQSLLASGNQNNYLAWYQQKPGKAPKMLIIWASTRVSGVPSRFSGSGSGTDFTLTISSLQPEDFATYYCQQSYSRPYTFGQGTKVEIKRTVAAPSVFIFPPSDEQLKSGTASVVCLLNNFYPREAKVQWKVDNALQSGNSQESVTEQDSKDSTYSLSSTLTLSKADYEKHKVYACEVTHQGLSSPVTKSFNRGEC

Key:
[1] = test system: MKN45 re#1 gastric cancer cells; assay: Cell proliferation, CellTiter Glo assay, anti-c-Met antibody resistance induced cell line MKN45 re#1; type: cell-based; conditions: 72 hours; for cell proliferation inhibition effect: single treatment: L3-1Y/IgG2 (2 μg/ml) only or linsitinib (10 uM) only, FIG. 7
Experimental: (§1) In particular, in order to obtain anti-c-Met antibody resistant MKN45 gastric cancer cells, MKN45 gastric cancer cells were administered with L3-1Y/IgG2 for at least 3 months by increasing the administration concentration. The amount of L3-1Y/IgG2 administered was increased from 1 μg/ml to 10 μg/ml, until resistance to L3-1Y/IgG2 is induced. The obtained L3-1Y/IgG2 resistant clones were named as MKN45re#1 and MKN45re#24, respectively.
(§2) In order to confirm the acquisition of resistance to L3-1Y/IgG2, the prepared L3-1Y/IgG2 resistant clones (MKN45 re#1 and MKN45 re#24) and MKN45 with no resistance were administered with various concentrations of L3-1Y/IgG2 (see FIG. 9). 72 hours after the antibody administration, the number of living cells was measured through CellTiter Glo assay (Promega, G7573).
(§3) The prepared L3-1Y/IgG2 resistance induced cell lines MKN45re#1 and MKN45re#24 were co-administered with L3-1Y/IgG2 and an IGF-1R inhibitor, to examine changes in cell proliferation of the L3-1Y/IgG2 resistance induced cell lines. Each of the L3-1Y/IgG2 resistant MKN45re#1 and MKN45re#24 cell lines was seeded on a 96-well plate at the amount of 10000 cells/well (medium: RPMI (GIBCO); culture conditions: 5% CO2 and 37° C.), and on the next day, treated with L3-1Y/IgG2 (2 μg/ml) and linsitinib (10 uM) together. 72 hours after the co-treatment, the number of living cells was counted by CellTiter Glo assay (Promega, G7573). For comparison, the same experiments were conducted using a control group with no treatment of L3-1Y/IgG or linsitinib, a group treated with L3-1Y/IgG (2 μg/ml) only, and a group treated with linsitinib (10 uM) only.

[2] = test system: MKN45 re#24 gastric cancer cells; assay: Cell proliferation, CellTiter Glo assay, anti-c-Met antibody resistance induced cell line MKN45 re#24; type: cell-based; conditions: 72 hours; for cell proliferation inhibition effect: single treatment: L3-1Y/IgG2 (2 μg/ml) only or linsitinib (10 uM) only, FIG. 8
Experimental: as §1, §2, §3

[3] = biological target: c-Met (Homo sapiens, UniProt P08581); assay: Specificity of expressed scFv to c-Met; type: binding; conditions: after expression
Sequence of c-Met (P08581 25-1390): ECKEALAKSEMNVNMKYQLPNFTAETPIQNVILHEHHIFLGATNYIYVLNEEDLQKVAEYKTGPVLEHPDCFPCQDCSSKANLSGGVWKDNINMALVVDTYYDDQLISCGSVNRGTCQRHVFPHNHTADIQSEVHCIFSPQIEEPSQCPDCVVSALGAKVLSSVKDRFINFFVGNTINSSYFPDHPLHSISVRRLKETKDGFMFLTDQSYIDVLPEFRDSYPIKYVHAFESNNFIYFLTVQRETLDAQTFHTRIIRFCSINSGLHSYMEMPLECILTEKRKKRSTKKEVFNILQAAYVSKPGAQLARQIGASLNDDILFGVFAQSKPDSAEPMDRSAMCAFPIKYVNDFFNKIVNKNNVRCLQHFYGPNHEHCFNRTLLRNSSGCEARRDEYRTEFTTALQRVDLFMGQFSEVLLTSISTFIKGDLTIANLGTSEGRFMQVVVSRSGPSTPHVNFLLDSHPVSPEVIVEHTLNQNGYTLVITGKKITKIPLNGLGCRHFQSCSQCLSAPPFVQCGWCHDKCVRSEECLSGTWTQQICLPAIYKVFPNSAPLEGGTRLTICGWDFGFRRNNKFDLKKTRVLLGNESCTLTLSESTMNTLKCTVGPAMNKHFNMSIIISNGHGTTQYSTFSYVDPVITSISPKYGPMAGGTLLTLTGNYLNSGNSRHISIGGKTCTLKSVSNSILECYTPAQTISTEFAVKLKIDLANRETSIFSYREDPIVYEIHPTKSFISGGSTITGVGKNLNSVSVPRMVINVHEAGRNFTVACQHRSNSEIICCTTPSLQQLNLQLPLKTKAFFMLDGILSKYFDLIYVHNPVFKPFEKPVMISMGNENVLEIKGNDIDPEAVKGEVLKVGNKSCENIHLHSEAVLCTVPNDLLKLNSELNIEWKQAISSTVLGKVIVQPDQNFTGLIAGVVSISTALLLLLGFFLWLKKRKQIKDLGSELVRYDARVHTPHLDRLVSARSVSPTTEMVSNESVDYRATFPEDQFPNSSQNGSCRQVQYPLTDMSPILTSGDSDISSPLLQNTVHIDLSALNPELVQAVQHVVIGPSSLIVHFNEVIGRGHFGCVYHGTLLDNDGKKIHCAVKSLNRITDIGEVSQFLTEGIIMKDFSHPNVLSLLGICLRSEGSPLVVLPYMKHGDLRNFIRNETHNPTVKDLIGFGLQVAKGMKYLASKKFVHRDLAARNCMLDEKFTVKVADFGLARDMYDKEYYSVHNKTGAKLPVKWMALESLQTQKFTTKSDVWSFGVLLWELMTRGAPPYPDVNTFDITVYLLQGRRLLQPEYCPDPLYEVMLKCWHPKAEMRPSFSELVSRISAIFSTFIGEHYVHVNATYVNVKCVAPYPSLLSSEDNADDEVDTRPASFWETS
From the text: For use in constructing an scFv of the huAbF46 antibody from the heavy and light chain variable regions of the huAbF46 antibody, a gene was designed to have the structure of “VH-linker-VL” for each of the heavy and the light chain variable region, with the linker including the amino acid sequence “[…]” (SEQ ID NO: 54). A polynucleotide sequence (SEQ ID NO: 55) encoding the designed scFv of huAbF46 was synthesized in Bioneer and an expression vector for the polynucleotide had the nucleotide sequence of SEQ ID NO: 56.

[4] = test system: MKN45 cells; assay: Cell proliferation, non-resistant MKN45 cells; type: cell-based
Experimental: as §2

[5] = test system: Hs746T cell line; assay: Anticancer effect of anti-c-Met antibody used alone, Hs746T; type: cell-based
[6] = test system: SNU-5 cell line; assay: Anticancer effect of anti-c-Met antibody used alone, SNU-5; type: cell-based
[7] = test system: SNU-668 cell line; assay: Anticancer effect of anti-c-Met antibody used alone, SNU-668; type: cell-based
[8] = test system: YCC-11 cell line; assay: Anticancer effect of anti-c-Met antibody used alone, YCC-11; type: cell-based
[9] = various, increasing concentrations of L3-1Y/IgG2, FIG. 9

Row | specificity to c-Met [3] | Molecule | cell proliferation inhibition effect [1] | cell proliferation inhibition effect [2] | proliferation (number of living cells) [1, 9] | proliferation (number of living cells) [2, 9] | effect (cancer cell proliferation inhibition effect) when administered alone [4] | anticancer effect when used alone [5] | anticancer effect when used alone [6] | anticancer effect when used alone [7] | anticancer effect when used alone [8]
1 | – | CC1(O)CC(c2nc(-c3ccc4ccc(-c5ccccc5)nc4c3)c3c(N)nccn23)C1 (stereo not drawn) [linsitinib, 3-[8-Amino-1-(2-phenyl-7-quinolyl)imidazo[1,5-a]pyrazin-3-yl]-1-methyl-cyclobutanol, reference compound] | no cell proliferation inhibition effect | no cell proliferation inhibition effect | – | – | – | – | – | – | –
2 | exhibit specificity to c-Met | B1 | – | – | – | – | – | – | – | – | –
3 | – | B2 | no cell proliferation inhibition effect | no cell proliferation inhibition effect | not inhibited | not inhibited | exhibits its effect | exhibits anticancer effect | exhibits anticancer effect | does not exhibit anticancer effect | does not exhibit anticancer effect
